Assay results published in PMC10602924.

Legend:
Test in all cases: EMSA
SerRS WT = SerRS WT (human, UniProt P49591 1-514)
SerRS deltaUNE-S = SerRS deltaUNE-S (human, UniProt P49591 1-469)
SerRS T429A = SerRS T429A (human, UniProt P49591 1-514, T429A)
SerRS T429A, sequence (P49591 whole entry T429A): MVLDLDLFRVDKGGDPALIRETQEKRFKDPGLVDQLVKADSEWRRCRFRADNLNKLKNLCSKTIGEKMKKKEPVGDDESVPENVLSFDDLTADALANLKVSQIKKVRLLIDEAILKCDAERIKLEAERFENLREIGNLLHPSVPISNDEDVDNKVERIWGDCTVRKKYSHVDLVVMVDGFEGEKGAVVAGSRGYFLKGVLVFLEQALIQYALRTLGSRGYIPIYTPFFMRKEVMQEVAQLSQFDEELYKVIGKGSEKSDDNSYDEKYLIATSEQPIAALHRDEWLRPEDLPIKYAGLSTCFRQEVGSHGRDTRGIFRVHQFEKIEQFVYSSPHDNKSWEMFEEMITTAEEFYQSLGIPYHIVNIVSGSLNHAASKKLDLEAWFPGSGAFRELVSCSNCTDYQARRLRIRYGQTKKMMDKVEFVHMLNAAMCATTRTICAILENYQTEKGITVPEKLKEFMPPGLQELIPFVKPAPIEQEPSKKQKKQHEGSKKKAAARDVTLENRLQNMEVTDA

SerRS WT, sequence (P49591 whole entry): as the sequence (P49591 whole entry T429A) above, with A429T counted along it
SerRS deltaUNE-S, sequence (P49591 1-469, stated change not applied): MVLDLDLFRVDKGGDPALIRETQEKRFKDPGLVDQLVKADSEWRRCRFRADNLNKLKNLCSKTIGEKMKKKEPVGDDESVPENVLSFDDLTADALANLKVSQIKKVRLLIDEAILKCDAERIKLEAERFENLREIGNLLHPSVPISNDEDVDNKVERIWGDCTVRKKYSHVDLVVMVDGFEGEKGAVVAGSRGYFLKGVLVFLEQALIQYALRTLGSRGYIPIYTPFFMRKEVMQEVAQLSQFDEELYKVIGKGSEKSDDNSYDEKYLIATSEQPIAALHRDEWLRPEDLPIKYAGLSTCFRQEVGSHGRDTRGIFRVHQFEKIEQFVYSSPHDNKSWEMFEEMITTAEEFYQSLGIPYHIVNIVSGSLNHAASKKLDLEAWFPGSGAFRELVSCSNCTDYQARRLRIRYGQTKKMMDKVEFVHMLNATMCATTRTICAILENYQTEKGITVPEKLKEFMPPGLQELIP

Binder	binding result (SerRS WT)	binding result (SerRS deltaUNE-S)	binding result (SerRS T429A)
VEGFA 3'UTR WT RNA (ssRNA) RNA: UGAGCCGGGCAGGAGGAAGGAGCCUCCCUCAGGGUUUCGGGAACCAGAUCUCUCACCAGGAAAGACUGA	binds	no binding	binds
UCAAAUGGAGCACCUGUUCCAUAUGUACGA (ssRNA) [MSH2 S612X RNA]	binds	–	–
